The values that follow are results of earlier work, collected in US10525162B2, “Sophorolipid mediated accelerated gelation of silk fibroin” (COUNCIL OF SCIENTIFIC & INDUSTRIAL RESEARCH, priority 2014, dated 2020).

For the data set the following is noted: aqueous SF solution without additive, below the isoelectric pH.

Regarding “SF: Silk fibroin, fibrous protein derived from silkworm Bombyx mori”, the gelation time is 10 to 16 h.
